Here are results for one molecule from PMC11864173 (Science Advances, 2025).

In this experiment the target is AaRseP(WT)-His8 (Aquifex aeolicus RseP, wild type) (Aquifex aeolicus, UniProt O67776). The experiment can be described thus: cryo-EM structure.

B1: 4A9 Fab (Fab of the anti-AaRseP mouse monoclonal antibody 4A9), with PA tag (Fab, V domains shown)
VH: EVKLVESGGGLVQPGGSLRLSCVTSGFTFTDYYMSWVRQPPGKALEWLAFIRNKVNGYTTEYRASVKGRFTISRDSSQSILYLQVNTLRAEDSATYYCARDRGGNGVYFDYWGQGTTLTVSS
VL: DIVMTQSHKFMSTSVGDRVSITCKASQDVGTDVAWYQQKPGQSPKLLIYWASIRHTGVPDRFTGSGSGTDFTLTISNVQSEDLADYFCQQYSSYPLTFGAGTKLELE
For the molecule B1, the binding result was “binds”.
